Measurements reported in publication PMC8884472 (Molecular cell, 2022).

B1: recombinant KLHL12^6xHis (natural protein, UniProt Q53G59 1-568, looked up)
chain: MGGIMAPKDIMTNTHAKSILNSMNSLRKSNTLCDVTLRVEQKDFPAHRIVLAACSDYFCAMFTSELSEKGKPYVDIQGLTASTMEILLDFVYTETVHVTVENVQELLPAACLLQLKGVKQACCEFLESQLDPSNCLGIRDFAETHNCVDLMQAAEVFSQKHFPEVVQHEEFILLSQGEVEKLIKCDEIQVDSEEPVFEAVINWVKHAKKEREESLPNLLQYVRMPLLTPRYITDVIDAEPFIRCSLQCRDLVDEAKKFHLRPELRSQMQGPRTRARLGANEVLLVVGGFGSQQSPIDVVEKYDPKTQEWSFLPSITRKRRYVASVSLHDRIYVIGGYDGRSRLSSVECLDYTADEDGVWYSVAPMNVRRGLAGATTLGDMIYVSGGFDGSRRHTSMERYDPNIDQWSMLGDMQTAREGAGLVVASGVIYCLGGYDGLNILNSVEKYDPHTGHWTNVTPMATKRSGAGVALLNDHIYVVGGFDGTAHLSSVEAYNIRTDSWTTVTSMTTPRCYVGATVLRGRLYAIAGYDGNSLLSSIECYDPIIDSWEVVTSMGTQRCDAGVCVLREK

Key:
recombinant CUL3/RBX1 = recombinant CUL3/RBX1 (UniProt Q13618 1-768; P62877 1-108); test: pull-down
recombinant KLHL12^6xHis = biological target: B1; test: pull-down

Chain of recombinant CUL3/RBX1 (Q13618 whole entry, chain 1 of 2): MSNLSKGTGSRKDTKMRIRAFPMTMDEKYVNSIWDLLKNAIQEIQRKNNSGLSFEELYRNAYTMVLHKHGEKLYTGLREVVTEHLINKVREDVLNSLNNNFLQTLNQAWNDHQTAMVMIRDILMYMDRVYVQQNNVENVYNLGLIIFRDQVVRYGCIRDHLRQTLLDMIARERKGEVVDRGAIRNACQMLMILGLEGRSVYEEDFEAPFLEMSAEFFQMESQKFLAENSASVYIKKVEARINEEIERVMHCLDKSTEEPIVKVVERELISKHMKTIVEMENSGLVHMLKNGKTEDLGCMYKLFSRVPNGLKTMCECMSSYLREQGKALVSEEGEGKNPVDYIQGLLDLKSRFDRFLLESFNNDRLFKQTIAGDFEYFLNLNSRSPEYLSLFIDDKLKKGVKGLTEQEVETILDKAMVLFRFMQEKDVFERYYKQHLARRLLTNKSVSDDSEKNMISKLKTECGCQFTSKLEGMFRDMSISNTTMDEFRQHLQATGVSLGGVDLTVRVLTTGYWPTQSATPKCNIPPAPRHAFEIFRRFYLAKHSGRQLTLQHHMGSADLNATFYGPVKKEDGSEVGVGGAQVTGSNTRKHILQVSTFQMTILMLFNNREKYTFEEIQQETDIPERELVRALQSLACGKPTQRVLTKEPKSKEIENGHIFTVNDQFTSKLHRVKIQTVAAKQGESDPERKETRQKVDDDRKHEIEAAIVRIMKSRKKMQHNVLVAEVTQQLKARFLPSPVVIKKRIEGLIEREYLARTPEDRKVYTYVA
Chain of recombinant CUL3/RBX1 (P62877 whole entry, chain 2 of 2): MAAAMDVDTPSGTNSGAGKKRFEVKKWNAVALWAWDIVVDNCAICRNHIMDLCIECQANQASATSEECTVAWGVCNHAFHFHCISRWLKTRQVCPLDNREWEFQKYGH

| Binder | binding result (recombinant CUL3/RBX1) | binding result (recombinant KLHL12^6xHis) |
| --- | --- | --- |
| B1 | binds |  |
| recombinant PEF1 (natural protein, UniProt Q9UBV8 1-284, looked up) MASYPYRQGCPGAAGQAPGAPPGSYYPGPPNSGGQYGSGLPPGGGYGGPAPGGPYGPPAGGGPYGHPNPGMFPSGTPGGPYGGAAPGGPYGQPPPSSYGAQQPGLYGQGGAPPNVDPEAYSWFQSVDSDHSGYISMKELKQALVNCNWSSFNDETCLMMINMFDKTKSGRIDVYGFSALWKFIQQWKNLFQQYDRDRSGSISYTELQQALSQMGYNLSPQFTQLLVSRYCPRSANPAMQLDRFIQVCTQLQVLTEAFREKDTAVQGNIRLSFEDFVTMTASRML |  | binds |
